# Results from paper PMC8215223.
# B1: GFP-WT-HOOK3 [human] / GM130 (endogenous) [human (endogenous in HeLa)] (parent)
# chain 1: MFSVESLERAELCESLLTWIQTFNVDAPCQTVEDLTNGVVMAQVLQKIDPAYFDENWLNRIKTEVGDNWRLKISNLKKILKGILDYNHEILGQQINDFTLPDVNLIGEHSDAAELGRMLQLILGCAVNCEQKQEYIQAIMMMEESVQHVVMTAIQELMSKESPVSAGNDAYVDLDRQLKKTTEELNEALSAKEEIAQRCHELDMQVAALQEEKSSLLAENQVLMERLNQSDSIEDPNSPAGRRHLQLQTQLEQLQEETFRLEAAKDDYRIRCEELEKEISELRQQNDELTTLADEAQSLKDEIDVLRHSSDKVSKLEGQVESYKKKLEDLGDLRRQVKLLEEKNTMYMQNTVSLEEELRKANAARSQLETYKRQVVELQNRLSEESKKADKLDFEYKRLKEKVDSLQKEKDRLRTERDSLKETIEELRCVQAQEGQLTTQGLMPLGSQESSDSLAAEIVTPEIREKLIRLQHENKMLKLNQEGSDNEKIALLQSLLDDANLRKNELETENRLVNQRLLEVQSQVEELQKSLQDQGSKAEDSVLLKKKLEEHLEKLHEANNELQKKRAIIEDLEPRFNNSSLKIEELQEALRKKEEEMKQMEERYKKYLEKAKSVIRTLDPKQNQGAAPEIQALKNQLQERDRLFHSLEKEYEKTKSQREMEEKYIVSAWYNMGMTLHKKAAEDRLASTGSGQSFLARQRQATSSRRSYPGHVQPATAR
# chain 2: MWPQPRLPPRPAMSEETRQSKLAAAKKKLREYQQRNSPGVPTGAKKKKKIKNGSNPETTTSGGCHSPEDTPKDNAATLQPSDDTVLPGGVPSPGASLTSMAASQNHDADNVPNLMDETKTFSSTESLRQLSQQLNGLVCESATCVNGEGPASSANLKDLESRYQQLAVALDSSYVTNKQLNITIEKLKQQNQEITDQLEEEKKECHQKQGALREQLQVHIQTIGILVSEKAELQTALAHTQHAARQKEGESEDLASRLQYSRRRVGELERALSAVSTQQKKADRYNKELTKERDALRLELYKNTQSNEDLKQEKSELEEKLRVLVTEKAGMQLNLEELQKKLEMTELLLQQFSSRCEAPDANQQLQQAMEERAQLEAHLGQVMESVRQLQMERDKYAENLKGESAMWRQRMQQMSEQVHTLREEKECSMSRVQELETSLAELRNQMAEPPPPEPPAGPSEVEQQLQAEAEHLRKELEGLAGQLQAQVQDNEGLSRLNREQEERLLELERAAELWGEQAEARRQILETMQNDRTTISRALSQNRELKEQLAELQSGFVKLTNENMEITSALQSEQHVKRELGKKLGELQEKLSELKETVELKSQEAQSLQQQRDQYLGHLQQYVAAYQQLTSEKEVLHNQLLLQTQLVDQLQQQEAQGKAVAEMARQELQETQERLEAATQQNQQLRAQLSLMAHPGEGDGLDREEEEDEEEEEEEAVAVPQPMPSIPEDLESREAMVAFFNSAVASAEEEQARLRGQLKEQRVRCRRLAHLLASAQKEPEAAAPAPGTGGDSVCGETHRALQGAMEKLQSRFMELMQEKADLKERVEELEHRCIQLSGETDTIGEYIALYQSQRAVLKERHREKEEYISRLAQDKEEMKVKLLELQELVLRLVGDRNEWHGRFLAAAQNPADEPTSGAPAPQELGAANQQGDLCEVSLAGSVEPAQGEAREGSPRDNPTAQQIMQLLREMQNPRERPGLGSNPCIPFFYRADENDEVKITVI
# Variants of: B1
# Experiment: coIP (co-immunoprecipitation, blot band intensity quantified)
# Details: with GM130 (endogenous) [human (endogenous in HeLa)]; HeLa cells, 100 ng/mL nocodazole for 16 hr (+); read off a plot
row,response,Variant
1,5.5 A.U,chain 1 S238A S707A
2,11 A.U,chain 1 S707E
3,16 A.U,chain 1 S707A
4,6.5 A.U,chain 1 S238E S707E
5,12 A.U,chain 1 S238E
6,16 A.U,chain 1 S238A
